This note sets out measurements from patent US20240279281A1, “Peptide Inhibitors of Interleukin-23 Receptor” (Janssen Pharmaceutica NV, priority 2023, published 2024).

Starred links: 1 amine or outer side, 2 acyl side, 3 side chain; linkers in the order of their positions; H or OH if unused. Positions of bridges follow the written chain, without caps; N, C: chain ends. Non-standard residues stand in square brackets, D forms with d. No end group written: not given here. X1 = 3‑(7-(3-acetamidophenyl)-1H-indol-3-yl)‑2‑aminopropanoic acid, CC(=O)Nc1cccc(-c2cccc3c(CC(N[*:1])C(=O)[*:2])c[nH]c23)c1; X10 = 2‑amino‑3‑(4-(2-guanidinoethoxy)phenyl)propanoic acid, N=C(N)NCCOc1ccc(CC(N[*:1])C(=O)[*:2])cc1; X7 = 2‑amino‑3‑(5-methylpyridin-3-yl)propanoic acid, Cc1cncc(CC(N[*:1])C(=O)[*:2])c1; Trp(7-(3-AcNH-Ph)) = CC(=O)Nc1cccc(-c2cccc3c(C[C@H](N)C(=O)O)c[nH]c23)c1; 2Nal(6-OH) = N[C@@H](Cc1ccc2cc(O)ccc2c1)C(=O)O; Trp(7-Me) = Cc1cccc2c(C[C@H](N)C(=O)O)c[nH]c12; dLys(Me3) = C[N+](C)(C)CCCC[C@@H](N)C(=O)O; 3Pal(5-Me) = Cc1cncc(C[C@H](N)C(=O)O)c1; AEF = NCCOc1ccc(C[C@H](N)C(=O)O)cc1; αMeF = C[C@](N)(Cc1ccccc1)C(=O)O; 3Pal = N[C@@H](Cc1cccnc1)C(=O)O; Pen = CC(C)(S)[C@H](N)C(=O)O; dDab = NCC[C@@H](N)C(=O)O; αMeC = C[C@](N)(CS)C(=O)O; Thp = NC1(C(=O)O)CCOCC1; Abu = CC[C@H](N)C(=O)O; Ahp = NCCCCCCC(=O)O; Sar = CNCC(=O)O

For the experiment, the target named is T1, interleukin-23 receptor (IL-23R), Q5VWK5.
T1 chain: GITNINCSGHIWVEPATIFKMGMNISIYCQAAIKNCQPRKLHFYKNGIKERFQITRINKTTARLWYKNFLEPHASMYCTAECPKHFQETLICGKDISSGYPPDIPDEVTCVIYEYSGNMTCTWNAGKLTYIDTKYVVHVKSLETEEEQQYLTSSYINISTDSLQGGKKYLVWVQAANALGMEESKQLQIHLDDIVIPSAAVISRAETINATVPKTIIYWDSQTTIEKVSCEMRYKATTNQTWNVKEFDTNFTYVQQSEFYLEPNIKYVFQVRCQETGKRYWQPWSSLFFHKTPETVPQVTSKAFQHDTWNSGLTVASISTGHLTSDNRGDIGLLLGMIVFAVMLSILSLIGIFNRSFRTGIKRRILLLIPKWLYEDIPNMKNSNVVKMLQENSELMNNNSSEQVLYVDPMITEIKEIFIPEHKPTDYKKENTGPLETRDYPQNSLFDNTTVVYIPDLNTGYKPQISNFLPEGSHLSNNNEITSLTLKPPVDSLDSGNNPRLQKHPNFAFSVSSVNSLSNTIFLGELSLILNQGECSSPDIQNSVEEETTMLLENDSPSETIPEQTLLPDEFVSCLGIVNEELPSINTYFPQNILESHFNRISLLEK
The experiment is described as follows: cell-based or functional assay.

B1: SEQ ID NO: 439 (peptide)
peptide: R[Pen]NT[Trp(7-Me)]K(Ac)[Pen][2‑amino‑3‑(4-(2-aminoethoxy)phenyl)propanoic acid][2‑amino‑3‑(5-carbamoylnaphthalen-2-yl)propanoic acid][Thp]EN[αMeF]
modifications: disulfide 2-7 (inferred); ends not checked
Consider B1, for which the IL23R Reporter Assay IC50 was over 100 nM and the PBMC pSTAT3 IC50 is under 1 nM.

B2: SEQ ID NO: 52 (peptide)
peptide: R[Pen]NT[Trp(7-Me)]K(Ac)[Pen][AEF][2Nal(6-OH)][Thp]EN[3Pal(5-Me)][Sar]
modifications: disulfide 2-7 (inferred); ends not checked
In turn, B2 had an IL23R Reporter Assay IC50 of under 10 nM.

B3: SEQ ID NO: 445 (peptide)
peptide: R[Pen]NT[Trp(7-Me)]K(Ac)[Pen][2‑amino‑3‑(4-(2-aminoethoxy)phenyl)propanoic acid][2‑amino‑3‑(5-methylnaphthalen-2-yl)propanoic acid][Thp]EN[αMeF]
modifications: disulfide 2-7 (inferred); ends not checked
As to B3, the IL23R Reporter Assay IC50 was over 100 nM and the PBMC pSTAT3 IC50 was over 1 nM.

B4: SEQ ID NO: 51 (peptide)
peptide: R[Pen]NT[Trp(7-Me)]K(Ac)[Pen][AEF][2Nal(6-OH)][Thp]EN[3Pal(5-Me)][Sar]
modifications: disulfide 2-7 (inferred); ends not checked
The molecule B4 registered an IL23R Reporter Assay IC50 of under 10 nM.

B5: SEQ ID NO: 437 (peptide)
peptide: R[Pen]NT[Trp(7-Me)]K(Ac)[Pen][2‑amino‑3‑(4-(2-aminoethoxy)phenyl)propanoic acid][2‑amino‑3‑(5-methoxynaphthalen-2-yl)propanoic acid][Thp]EN[αMeF]
modifications: disulfide 2-7 (inferred); ends not checked
Molecule B5 yielded an IL23R Reporter Assay IC50 of over 100 nM and a PBMC pSTAT3 IC50 of over 1 nM.

B6: SEQ ID NO: 422 (peptide)
peptide: R[Pen]ET[Trp(7-Me)]K(Ac)[Pen][AEF][2Nal(6-OH)][Thp]K(Ac)N[3Pal][Sar]
modifications: not fully specified (bridges); ends and bridges not checked
Turning to B6, the IL23R Reporter Assay IC50 is under 10 nM and the PBMC pSTAT3 IC50 was under 10 pM.

B7: SEQ ID NO: 9 (peptide)
peptide: [Pen]NT[X1]K(Ac)[Pen][X10][2‑amino‑3‑(6-hydroxynaphthalen-2-yl)propanoic acid][Thp]EN[3Pal][Sar]
modifications: ends and bridges not checked
With B7, the IL23R Reporter Assay IC50 is under 10 nM and the PBMC pSTAT3 IC50 is over 1 nM.

B8: SEQ ID NO: 397 (peptide)
peptide: [Pen]ET[Trp(7-Me)]K(Ac)[Pen][2‑amino‑3‑(4-(2-aminoethoxy)phenyl)propanoic acid][2‑amino‑3‑(6-hydroxynaphthalen-2-yl)propanoic acid][Thp]EN[3Pal][Sar]
modifications: not fully specified (bridges); ends and bridges not checked
For B8, the IL23R Reporter Assay IC50 was under 10 nM and the PBMC pSTAT3 IC50 is under 10 pM.

B9: SEQ ID NO: 49 (peptide)
peptide: R[Pen]NT[Trp(7-Me)]K(Ac)[Pen][2‑amino‑3‑(4-(2-aminoethoxy)phenyl)propanoic acid][2‑amino‑3‑(6-hydroxynaphthalen-2-yl)propanoic acid][Thp]K(Ac)N[X7][Sar]
modifications: disulfide 2-7 (inferred); ends not checked
The molecule B9 displayed an IL23R Reporter Assay IC50 of under 10 nM.

B10: SEQ ID NO: 6 (peptide)
peptide: R[Abu]NT[Trp(7-(3-AcNH-Ph))]K(Ac)[αMeC][AEF][2Nal(6-OH)][Thp]EN[3Pal][Sar]
modifications: ends and bridges not checked
For the molecule B10, the IL23R Reporter Assay IC50 was under 10 nM and the PBMC pSTAT3 IC50 is under 0.1 nM.

B11: SEQ ID NO: 429 (peptide)
peptide: R[Pen]NT[Trp(7-Me)]K(Ac)[Pen][2‑amino‑3‑(4-(2-aminoethoxy)phenyl)propanoic acid][2‑amino‑3‑(6-hydroxynaphthalen-2-yl)propanoic acid][Thp]ENA[Sar]
modifications: not fully specified (bridges); ends and bridges not checked
In turn, B11 returned an IL23R Reporter Assay IC50 of over 100 nM and a PBMC pSTAT3 IC50 of over 1 nM.

B12: SEQ ID NO: 441 (peptide)
peptide: R[Pen]NT[Trp(7-Me)]K(Ac)[Pen][2‑amino‑3‑(4-(2-aminoethoxy)phenyl)propanoic acid][2‑amino‑3‑(6-hydroxynaphthalen-2-yl)propanoic acid][Thp]EN[2‑amino‑3‑(5-carbamoylpyridin-3-yl)propanoic acid][Sar]
modifications: disulfide 2-7 (inferred); ends not checked
Molecule B12 came in with an IL23R Reporter Assay IC50 of under 10 nM and a PBMC pSTAT3 IC50 of under 0.1 nM.

B13: SEQ ID NO: 413 (peptide)
peptide: [dDab](Ac)[Abu]NTWQC[AEF][2Nal(6-OH)][Thp]CN[3Pal][Sar]
modifications: not fully specified (bridges); ends and bridges not checked
B13 showed an IL23R Reporter Assay IC50 of under 10 nM and a PBMC pSTAT3 IC50 of under 0.1 nM.

B14: SEQ ID NO: 7 (peptide)
peptide: R[Abu]NTWK(Ac)[αMeC][X10][2Nal(6-OH)][Thp]K(Ac)N[3Pal][Sar]
modifications: ends and bridges not checked
As for B14, the IL23R Reporter Assay IC50 is under 10 nM and the PBMC pSTAT3 IC50 was under 0.1 nM.

B15: SEQ ID NO: 424 (peptide)
peptide: R[Pen]NT[Trp(7-Me)]K(Ac)[Pen][AEF][2Nal(6-OH)][Thp]KN[3Pal][Sar]
modifications: not fully specified (residue 11, bridges); ends and bridges not checked; also: K11: lipidated lysine
On to B15, for which the IL23R Reporter Assay IC50 was over 100 nM and the PBMC pSTAT3 IC50 is under 1 nM.

B16: SEQ ID NO: 8 (peptide)
peptide: [dLys(Me3)]CNT[Trp(7-Me)]K(Ac)[αMeC][2‑amino‑3‑(4-(2-aminoethoxy)phenyl)propanoic acid][2‑amino‑3‑(6-hydroxynaphthalen-2-yl)propanoic acid][Thp]EN[3Pal][Sar]
modifications: ends and bridges not checked
Consider B16, for which the IL23R Reporter Assay IC50 was under 10 nM and the PBMC pSTAT3 IC50 was under 10 pM.

B17: SEQ ID NO: 431 (peptide)
peptide: R[Pen]NT[Trp(7-Me)]K(Ac)[Pen][2‑amino‑3‑(4-(2-aminoethoxy)phenyl)propanoic acid][2‑amino‑3‑(6-(2-hydroxyphenyl)naphthalen-2-yl)propanoic acid][Thp]EN[Thp]
modifications: not fully specified (bridges); ends and bridges not checked
B17 came in with an IL23R Reporter Assay IC50 of over 100 nM and a PBMC pSTAT3 IC50 of over 1 nM.

B18: SEQ ID NO: 50 (peptide)
peptide: [dK](Me3)[Pen]NT[Trp(7-Me)]K(Ac)[Pen][2‑amino‑3‑(4-(2-aminoethoxy)phenyl)propanoic acid][2‑amino‑3‑(6-hydroxynaphthalen-2-yl)propanoic acid][Thp]EN[X7][Sar]
modifications: disulfide 2-7 (inferred); ends not checked
With B18, the IL23R Reporter Assay IC50 is under 10 nM.

B19: SEQ ID NO: 447 (peptide)
peptide: [Ahp][Pen]NT[Trp(7-Me)]K(Ac)[Pen][2‑amino‑3‑(4-(2-aminoethoxy)phenyl)propanoic acid][2‑amino‑3‑(6-hydroxynaphthalen-2-yl)propanoic acid][Thp]EN[3Pal][Sar]
modifications: disulfide 2-7 (inferred); ends not checked
For B19, the IL23R Reporter Assay IC50 is over 100 nM and the PBMC pSTAT3 IC50 was under 1 nM.

B20: SEQ ID NO: 53 (peptide)
peptide: R[Pen]NT[Trp(7-(3-AcNH-Ph))]K(Ac)[Pen][AEF][2Nal(6-OH)][Thp]EN[3Pal(5-Me)][Sar]
modifications: disulfide 2-7 (inferred); ends not checked
Take B20: the IL23R Reporter Assay IC50 was under 10 nM.

B21: SEQ ID NO: 430 (peptide)
peptide: R[Pen]QTWQ[Pen][2‑amino‑3‑(4-(2-aminoethoxy)phenyl)propanoic acid][2‑amino‑3‑(6-hydroxynaphthalen-2-yl)propanoic acid][Thp]EN[Thp]
modifications: not fully specified (bridges); ends and bridges not checked
B21 came in with an IL23R Reporter Assay IC50 of over 100 nM and a PBMC pSTAT3 IC50 of over 1 nM.

B22: SEQ ID NO: 417 (peptide)
peptide: [Ahp][Pen]NT[Trp(7-Me)]K(Ac)[Pen][AEF][2Nal(6-OH)][Thp]EN[3Pal][Sar]
modifications: not fully specified (bridges); ends and bridges not checked
Turning to B22, the IL23R Reporter Assay IC50 was under 10 nM and the PBMC pSTAT3 IC50 is under 10 pM.
